Measurements: the nanobody polyreactivity screen of Harvey et al. (2022)

Experiment: yeast display, Sf9 membrane polyspecificity reagent, FACS + sequencing; frameworks hold sequencing errors
Procedure, shortened: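 Nanobodies came from a synthetic yeast display library in Saccharomyces cerevisiae BJ5465, induced with galactose for 36–48 hours and stained for 1 hour at 4 °C with 10% biotinylated, detergent-solubilized Sf9 membrane reagent. Cells were enriched on streptavidin microbeads and then FACS-sorted, with low and high (top ~1%) gates set on anti-HA fluorescence for expression and streptavidin fluorescence for reagent binding. Each polyreactivity label reflects the gate a clone came from. Genes were amplified by colony PCR, sequenced by MiSeq 2 × 250 and filtered by CDR length.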

Sequence	polyreactivity (PSR sort gate)
QVQLVESGGGLVQARGSLRLSCAASGFIVSPNVMGWYRQAPGKERELVAVISSTGSTYYADSVKGRFTISRDNAKNTVYLQMNSLKPEDTAVYHCNADYSWYGSSGRPGYDYWGQGTQVTVSS	low polyreactivity
QVQLVESGGGLVQARGSLRLSCAASGFTFQNNAMGWYRQAPGKERELVAAISRSGGSTYYADSVKGRFTISRDNANITVYLQMNSLKPEDTAVYYCAKSSGTLWITKYDYWGQGTQVTVSS	low polyreactivity
QVQLVESGGGLVQARGSLRLSCAASGFTFYFYAMGWYRQATGKETELVAAISRSGSRTYYADSVKGRFTISRDNAKNTVYLQMNSLKPVDTAVYYCARVRPRGLYFVLHYDYWGQGTQVTVSS	high polyreactivity
QVQLVESGGGLVQARGSLRLSCAASGLTFASYAMGWYRQEPGKERELVARISRSGGSTYYADSVKGRFTISRDNAKNTVYFHMNSLKPEDTAVYYCAADYIFRRYPGGGIYDYDYWGQGTQVTVSS	high polyreactivity
QVQLVESGGGLVQARGSLRLSCAASGRIFDRYDMGCYRQAPGKEREFVASITWSDGSTYYADSVKGRFTISRDYAKNTVYLQMNSLKPEDTAVYYCNADYVYYYIPVVYEYDYWGQGTQVTVSS	high polyreactivity
QVQLVESGGGLVQARGSLRLSCAASGRIFNYYAMGWYRQAPGKERELVAAISGSGGRTYYADSVKGRFTISRDNAKNTVYLQMNSLKPEDTAVYYCAADGVDGYDYWGLGTQVTVSS	high polyreactivity
QVQLVESGGGLVQARGSLRLSCAASGRTLYDYAMGWYRPAPGKERELVAAISSSGATTYYADSVKGRFTISRDHAKNTVYLQMNSLKPEDTAVYYCAAESVHQAWSGYYYWGQGTQVTVSS	high polyreactivity
QVQLVESGGGLVQARGSLRLSCAASGSIFDFYAMGWYRQAPGKERELVAAISGSGGSTYYADSVKARFTISRDNAKNNGYLQMISLKPDDTAVYYCSYYYWGQGTQVTVSS	low polyreactivity
QVQLVESGGGLVQARGSLRLSCAASGSIFFPYAMGWYRQAPGKERELVAAIRYSAGSTYYADSVKGRFTISRDNAKNTVYLQMNSLKPEDTAVYYCNAGSSCWVSRIGYDYWGEGTQVTVSS	high polyreactivity
QVQLVESGGGLVQARGSLRLSCAASGSIFIRNAMGWYRQAPGKERELVAAISTIGGRTYYADSVKGRFTISRDNAKNTVYLQMNSLKPEDTAVYYCAAEQGTPSTNWYDYWGQGTQVTVSS	low polyreactivity
QVQLVESGGGLVQARGSLRLSCAASGSIIGGNAMGWYRQAPGKERELVATISWSGGSTYYADSVKGRFTISRDKAKNTVYLQMNSLKPEDTAVYYCAKTPYRRYRYGGYTYRTYEYWGQGTQVTVSS	low polyreactivity
QVQLVESGGGLVQARGSLRLSCAASGSTFGLYAMGWYRQAPGKERELVAAISYSGSSTYYADSVKGRFTISRDNAKNTVYLQMNSLKPEDTAVYYCAARRSEHGYNYWGQGTQVTVSS	high polyreactivity
QVQLVESGGGLVQARGSLRLSCAASGSTFRINAMGWYRQAPGKERELVAAITSGGSTKYADSVKGRFTISRDNAKNTVYLQMYILKPADTAVYYCNKQGYPFRYFAWYPGYNYWGQGTQVTVSS	low polyreactivity
QVQLVESGGGLVQARGSLRLSCAASGSTFYAYVMGWYRQATGKERELVAAISKGGGSTYYADSVKGRFTISRDNAKNTVYLQMNSLKPEDTAVYYSAAYASYSNYRKYNYWGQGTQVTVSS	high polyreactivity
QVQLVESGGGLVQARGSLRLSCAASGSTFYYYAMALSRQAPVKERELFASISDHGSTNYADSVKGRFTISRDNAKNTVFLQMNSMKPEDTAVYYCGAVWCLQFGSAWYQMGYWGQVTQVTVSS	low polyreactivity
QVQLVESGGGLVQARGSLRLSCAASGSTLTRNTMGGYRQAPGKERELVAGITRSGSSTYYADSVKGRFTISRDNAKNTVYLQMNSLKPEDTAVYYCAAPYRYRQNLGYWGQGTQVTVSS	high polyreactivity

Sequence	polyreactivity (PSR sort gate)
QVQLVESGGGLVQARGSLRLSCAASGTIFSSYAMGWYRQAPGKERELVAAIRWTGGSTYYADSVKGRFTISRDNAMNTVFLEMNSLKPEDTAVYFCTAEYWIDWGYDYWGQGTQVTVSS	low polyreactivity
QVQLVESGGGLVQARGSLRLSCAATGLTFYSNAMGWSRQAPGKERELVARISTGGSTYADSVKGRFTISRDNAKNTVYLQMNSLKPEDTAVYYCAKLPPRGIDDEYWGQGTQVTVSS	low polyreactivity
QVQLVESGGGLVQARGSLRLSFAASGGIFYSYAMGRYRQAPGKEREFVAAIRRSGGRTYYADSVKGRFTISRDNAKNTVYLQMNSLKPEDTAVYYCAADGWYSGGHDYWGQGTQVTVSS	high polyreactivity
QVQLVESGGGLVQARGSLRLSWAASGIIFALYAMGWSRQAPGKERELVAAISSDGITKYADSVKGRFTISRDNAKNPDYLQMNSLKPEDTAVYYCAADGYPGDYDYWGQGTQVTVSS	low polyreactivity
QVQLVESGGGLVQARVSLRLSCAASGITFRYYAMGWYRQAPGKERELVAAITRGGGSTYYADSVKGRFTISRDNAKNTVYLQMNSLKPEDTAVYYCAAAGSRYAWGYGYWGQGTQVTVSS	high polyreactivity
QVQLVESGGGLVQAVGRLRLSCAASGITLSLYAMGWYRQATGKETELVAAISRGGGRTYYADSVKGRFTISRDNAKNTVYLQMNSLKPEDTAVYYCNKGRNPGPAYFASVDYWGQGTQVTVSS	high polyreactivity
QVQLVESGGGLVQAVGRLRLSCAASGRTFYYNGMGWYRQAPGKERELVAAISSGGTTSYADSVKGRFTISRDNAKNTVYLQMNSLKPEDTAVYYCNVYDKAPAYDYWGQGTQVTVSS	low polyreactivity
QVQLVESGGGLVQAVGSHRLICAASGSIFPYYAMGWYRQAPGKERELVATITYRGGSTNYADSVKGRFTISRDNAKNTVYLQMNSLKPEDTAVYYCAAEYYSIRYGPHSIEVYGMDYWGQGTHVTVSS	low polyreactivity
QVQLVESGGGLVQAVGSLRLSCAASGFTFQHYAMGWYRQAPGNERELVAVISFSGGRTYYADSVKGRFTISRDNAKNTVYLQMNSLKPEDTAVYYCAAVFWDDYGKYYYWGLGTQVTVSS	high polyreactivity
QVQLVESGGGLVQAVGSLRLSCAASGLTFYPNAMGWYRQAPGKERQFVDSISISGRTYYADSVKGRFTISRDNAKNTVYLQMNSLKPEDTAVYYCAARYVRSGLYRKYDYWGQGTQVTVSS	high polyreactivity
QVQLVESGGGLVQAVGSLRLSCAASGLTFYSNAMGWYRQPHGKERELVATISQDGGRTYADSVKGRFTISRDNAKNTVYLQMNSLKPEDTAVYYCAADYSGNYDFGYWGQGTQVTVSS	low polyreactivity
QVQLVESGGGLVQAVGSLRLSCAASGRIFGYYDMGWYRQAPGKERELVAAINYDGGSTYYADSVKGRFTISRDNAKNTVYLQMNSLKPDDTAVYYCNKDGRVYLDHDYWGQGTQVTVSS	low polyreactivity
QVQLVESGGGLVQAVGSLRLSCAASGRIFNYYAMGWYRQAPGKEREMVAGISGYGTSTYYADSVKGRFTISRDNAKNTVYLQMNSLKPEDTAVYYCAADVFRDDVWLDYWGHGTQVTVSS	low polyreactivity
QVQLVESGGGLVQAVGSLRLSCAASGRIFRYNAMGWYRQAPVKERELVASITSAGSTNYADSVKGRFTISRDNAKNTVYLQMNSLKPEDTAVYYCAARAQSPPYGYWGQGTQVTVSS	high polyreactivity
QVQLVESGGGLVQAVGSLRLSCAASGRTFARNAMGWYRQAPGKERELVAVITSGTSTYYADSVKGRFTISRDYAKNTVYLQMNSLKPEDTAVYYCAARSPGRAGIYYSWGQGTQVTVSS	high polyreactivity
QVQLVESGGGLVQAVGSLRLSCAASGRTFNRYGMGWYRQAPAKEMELVAAIRWSGTTTYYADSVKGRFTISRDNAKNTVYLQMNSQKPEDTAVYYCAAGTNVGRYGYYYWGQGTQVTVSS	high polyreactivity
